# Source: US20240197738
# B1: OTUD7A (protein)
# chain: MVSSVLPNPTSAECWAALLHDPMTLDMDAVLSDFVRSTGAEPGLARDLLEGKNWDLTAALSDYEQLRQVHTANLPHVFNEGRGPKQPEREPQPGHKVERPCLQRQDDIAQEKRLSRGISHASSAIVSLARSHVASECNNEQFPLEMPIYTFQLPDLSVYSEDFRSFIERDLIEQATMVALEQAGRLNWWSTVCTSCKRLLPLATTGDGNCLLHAASLGMWGFHDRDLVLRKALYTMMRTGAEREALKRRWRWQQTQQNKEEEWEREWTELLKLASSEPRTHFSKNGGTGGGVDNSEDPVYESLEEFHVFVLAHILRRPIVVVADTMLRDSGGEAFAPIPFGGIYLPLEVPPNRCHCSPLVLAYDQAHFSALVSMEQRDQQREQAVIPLTDSEHKLLPLHFAVDPGKDWEWGKDDNDNARLAHLILSLEAKLNLLHSYMNVTWIRIPSETRAPLAQPESPTASAGEDVQSLADSLDSDRDSVCSNSNSNNGKNGKDKEKEKQRKEKDKTRADSVANKLGSFSKTLGIKLKKNMGGLGGLVHGKMGRANSANGKNGDSAERGKEKKAKSRKGSKEESGASASTSPSEKTTPSPTDKAAGASPAEKGGGPRGDAWKYSTDVKLSLNILRAAMQGERKFIFAGLLLTSHRHQFHEEMIGYYLTSAQERFSAEQEQRRRDAATAAAAAAAAAAATAKRPPRRPETEGVPVPERASPGPPTQLVLKLKERPSPGPAAGRAARAAAGGTASPGGGARRASASGPVPGRSPPAPARQSVIHVQASGARDEACAPAVGALRPCATYPQQNRSLSSQSYSPARAAALRTVNTVESLARAVPGALPGAAGTAGAAEHKSQTYTNGFGALRDGLEFADADAPTARSNGECGRGGPGPVQRRCQRENCAFYGRAETEHYCSYCYREELRRRREARGARP
# Molecular target: EWS-FLI1-3A (S464A/S465A/S466A)
protein,measurement,value
B1,"3A-EWS-FLI1 protein level after OTUD7A depletion (immunoblot, FIG. 3I)",depletion of OTUD7A failed to reduce 3A-EWS-FLI1 protein levels
